Test results from the supplement of paper PMC9732359.
± gives the uncertainty stated by the source.

Assay: protein stability index of a GFP-peptide fusion (yeast GPS) (PSI 1-4); higher = more stable; sorted into four equal gates, so the index is relative within each strain
In short: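 Sequencing reads from sorted gates were used to score each peptide. The library consisted of tiled 17-residue yeast protein peptides fused downstream of GFP on a Cherry-expressing plasmid, pooled and carried in yeast. Mid-log cultures in leucine-free medium were split into four equal gates by GFP/Cherry ratio, and each gate's plasmids were PCR-amplified and Illumina-sequenced. The protein stability index adds up, over all gates, the read frequency multiplied by the gate number.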

Sequence	protein stability index (pdr5∆)	protein stability index (san1∆)	protein stability index (ubr1∆)	protein stability index (doa10∆)
GEGSTVNASVDVDQHGN [SWI3]	3.47 ± 0.17	2.87 ± 0.29	3.35 ± 0.19	
GEHEKSNILLNSLTKYP [MED1]	1.92 ± 0.076	1.14 ± 0.25	1.69 ± 0.068	1.45 ± 0.08
GEIDFIKNIGKSLKNNF [YML103C/NUP188]	2.57 ± 0.18	2.17 ± 0.15		2.59 ± 0.21
GEIVSINQINEAHPTKV [RPL20A]	2.98 ± 0.17	3.06 ± 0.06	2.77 ± 0.092	3.17 ± 0.25
GELDVLQIESVTKETVH [PRP8]	2.73 ± 0.066	2.55 ± 0.07	2.76 ± 0.064	2.54 ± 0.054
GELLHHPIMETIVNDSN [RPN9]	2.77 ± 0.054	2.2 ± 0.08	2.97 ± 0.078	2.6 ± 0.053
GESTVESEKLVTPEDVM [RPC82]	3.25 ± 0.12	3.15 ± 0.11		3.15 ± 0.09
GETIKSNAVTQTNIWEE [SEM1]	3.54 ± 0.16	2.97 ± 0.17	3.43 ± 0.14	3.37 ± 0.087
GFQDRSLPHFPKNSKTP [RPO31]	1.96 ± 0.1	1.56 ± 0.11		2.7 ± 0.14
GFSFGSQLGGNKTVNEA [YJL041W/NSP1]	3.23 ± 0.074	3.32 ± 0.048	3.22 ± 0.048	3.18 ± 0.072
GFVRNSFFSGLSPPEFL [RPO31]	2.95 ± 0.079	3.11 ± 0.08	3.13 ± 0.052	2.99 ± 0.077
GGALDNPFEDDMDGVDF [BRN1]	3.32 ± 0.077	3.4 ± 0.039	3.41 ± 0.057	3.39 ± 0.054
GGDVVKFQKLLQNSERD [SMC4]	3.11 ± 0.049	3.06 ± 0.047	2.96 ± 0.052	3.15 ± 0.073
GGESAYFFQLQIRSADE [RPC11]	2.88 ± 0.062	2.71 ± 0.06	3.22 ± 0.062	2.73 ± 0.06
GGESMEGPKKCIQVNCL [SNM1]	1.95 ± 0.054	2.23 ± 0.1	1.79 ± 0.054	1.92 ± 0.053
GGNNNNNSTGIANDNVI [SWI1]	3 ± 0.053	2.94 ± 0.05	3.14 ± 0.044	2.87 ± 0.057
GGQTKPVFHKKAKTTKK [RPL42A]	2.94 ± 0.076	2.73 ± 0.064	2.89 ± 0.045	2.72 ± 0.056
GGSFGNREEFINKLVKS [RPL7A]		3.18 ± 0.17	2.93 ± 0.077	2.98 ± 0.22
GGSGAATFSVSQASSDL [CSL4]	3.31 ± 0.074	3.43 ± 0.061	3.36 ± 0.06	3.4 ± 0.08
GHIAKLMATEYQDIEGG [RPB2]			3.18 ± 0.13	3.45 ± 0.29
GHSLGEYAALASLADVM [FAS1]	2.29 ± 0.057	1.92 ± 0.078	2.6 ± 0.059	2.27 ± 0.061
GIAIGLNKGKKVTQMTP [RPL36B]	1.51 ± 0.2			
GIDPDETVPDNVKTSVS [RPO31]				2.83 ± 0.22
GIFEKAKAKAVTSKVRN [YMR153W/NUP53]	2.59 ± 0.26	2.51 ± 0.15	2.38 ± 0.085	2.24 ± 0.1
GIFNLLNTLFNPVTLNE [NUT1]	1.93 ± 0.052	1.87 ± 0.075	1.92 ± 0.048	2.52 ± 0.051
GIKATNGVVIATEKKSS [PRE8]	2.89 ± 0.17	2.52 ± 0.26	3.09 ± 0.11	2.91 ± 0.18

Sequence	protein stability index (pdr5∆)	protein stability index (san1∆)	protein stability index (ubr1∆)	protein stability index (doa10∆)
GIVSVSDPQMKVFDTLT [RPN1]	2.93 ± 0.12	2.87 ± 0.16	2.82 ± 0.13	2.81 ± 0.16
GKGESVIFNDNVTETYS [SIR3]	2.92 ± 0.14	2.88 ± 0.074	2.87 ± 0.2	3.08 ± 0.21
GKGHLVGRLASVVAKQL [RPL16A]	1.48 ± 0.051	1.33 ± 0.099	1.32 ± 0.05	1.33 ± 0.057
GKGNTFEKVGSHLYKAR [RPN14]	2.81 ± 0.14		3.27 ± 0.13	2.93 ± 0.25
GKILTIKQQQQQQQQQN [YML103C/NUP188]	3.13 ± 0.053	3.12 ± 0.048	2.96 ± 0.049	2.77 ± 0.049
GKIRGVEDDLVTVQTEL [SMC2]	2.62 ± 0.068	2.48 ± 0.077	2.85 ± 0.076	3.1 ± 0.12
GKKLTDEINTAQDKWHL [RET1]	3.18 ± 0.084	3.09 ± 0.054	2.95 ± 0.13	3.22 ± 0.1
GKLFSDIKVLKRQLIKE [YIL149C/MLP2]	2.56 ± 0.08	2.59 ± 0.078	2.42 ± 0.04	3.01 ± 0.12
GKNVINRERFISKLFLR [SMD2]	1.69 ± 0.067	1.73 ± 0.14	2.68 ± 0.12	2.85 ± 0.093
GKPHFSLLGGFDENIAR [PCI8]	2.91 ± 0.12	3.25 ± 0.095	2.96 ± 0.076	3.18 ± 0.11
GKQVFSLLIKPNHNSPV [RPO31]	3.33 ± 0.28			
GKRIAYVYRASKEVRGS [RPL33A]	2.57 ± 0.08	2.43 ± 0.064	2.73 ± 0.047	2.8 ± 0.063
GKRQVLIRPSSKVIIKF [RPS22A]	2.4 ± 0.046	2.78 ± 0.057	2.95 ± 0.042	3.04 ± 0.068
GKTIVVKDLGQGLKLAK [SMC3]	2.92 ± 0.15	2.45 ± 0.16	2.81 ± 0.067	2.9 ± 0.15
GLFGANSNSNSGSLFGS [YGL172W/NUP49]	1.7 ± 0.14	1.05 ± 0.25	1.41 ± 0.21	1.31 ± 0.13
GLGMISASHILIPASDL [PRP8]	2.41 ± 0.043	1.75 ± 0.06	2.19 ± 0.036	2.06 ± 0.05
GLGVLTHRNKDGTGVRV [FAS1]	2.47 ± 0.094	3.58 ± 0.082	3.27 ± 0.085	3.12 ± 0.066
GLHKFVKGDLLQEAIDF [PRE10]	2.83 ± 0.079	3.09 ± 0.082	2.99 ± 0.053	2.93 ± 0.1
GLIAARRTGLLRGSQKT [RPL2A]	3.08 ± 0.11	2.88 ± 0.11	2.78 ± 0.11	3.04 ± 0.12
GLKYALATGNWGEQKKA [RPB2]	2.85 ± 0.075	3.01 ± 0.082	2.8 ± 0.063	2.58 ± 0.097
GLRVRGQHTKTTGRRRA [RPS18A]	2.33 ± 0.066	2.21 ± 0.068	2.54 ± 0.037	2.09 ± 0.052
GLSLAGLAPDARVLSNY [PRE5]	1.58 ± 0.1	1.27 ± 0.24	1.13 ± 0.1	1.23 ± 0.098
GLSQTEAFGNIKIDAKP [MCD1]	2.87 ± 0.15	1.77 ± 0.2	2.48 ± 0.078	2.07 ± 0.083
GLTLSTTNLDIDLLTFQ [RPP1]	3.04 ± 0.06	3.16 ± 0.056	2.86 ± 0.05	2.94 ± 0.067
GLVNHRVGVKLKFNSTE [SMX3]	2.24 ± 0.04	1.94 ± 0.056	1.48 ± 0.036	2.48 ± 0.052
